Assay: label from the status in PepcDB records
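Further: failed if final PepcDB status was selected cloned or expressed and not failed if soluble or beyond.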

Row | Sequence | protein production
1 | MPGKKQEVQEELLEEQLEKAYQGRINNIKESFAGVLSVLKTANTKKLERITARSHNYLGLLHMIQGNHIKSITHSRQALEYFQRVQSLKDIADAKFNIASSLYKTDNFHDGLKGLLECRQIYKSIGEGRSECRSLKSIATIYEYWSDVNKAFLIYQECIDLATRHGDLAMLSNVYNPMSGLYLKRGDIETATKLSDKSIAIKKKIKDERGLAYSIYGKGKVFFAQQKFAQAETYFLQSLELQQKFGDKLGAGMVLNKLGLTYVEQKKYLQAEKILKQAVSLAEKHNVKVNVYKSYYSLYTLYKLQHKESNALQCLEQFVLHKENNVQSHTSDIIRSYEAANEIYRLEKDTKAQIDYLEIVQKKNTELDSFFYRVSHDLKGPISSLLGLNELIEKEQFDGEALKYFNMYKKLSTRIDAIVMDLITITRISSDKIVPVKIDFMQLIEDCIHSYAYFDNFEHIQFNIEVEEGISFQSEWVIVNTILQNLIENSIKYMRHDVKKPYVFIQVYTQGQMLCIKVTDNGQGISEEYQEKIYEMFFRANDKADGSGLGLYILKRAVERLQGTVSLKSKPGKGAAFTVCIKGE | failed
2 | MAHKKGLGSTRNGRDSQAKRLGVKRYEGQVVRAGNILVRQRGTRFKPGKNVGMGRDFTLFALVDGVVEFQDRGRLGRYVHVRPLA | not failed
3 | MIRNPKIYIIILNYNAYEDTLECVKSIGNIDYDNYELVLVDNSSTDDSYVKLKESLPSYNIIKSKENLGYANGNNIGIKYALENGADYICILNNDVVVEKDFLNKLVDKIIEKEDVGIVGSCICDYYRREIIQGMGAHINLYFAAARRYFKGKNYNEIEKKDIFVDYLEGACFLVKSEVFEKIGLIPENYFLFFEETEFCTRAINAGYKIMCIYESKVYHKGSATINKFGSLSYAYLNRNRVIFVRRNSKWYQKIIFAIYIFIEAFGRIVIRKEPLTLFKYILGGFKSNKESIDVIDVKSYVKLEHHHHHH | failed
4 | MKILTQSLPNSSAAYLQGYLRENTDSSVTYPTVIIVPGGSYTHIPERQAEDLALAWVARGYQAFFLRYSFISEKTPLLPNPVIELAQSVAAIHAHATTWHVDLRRLAVAGFSVGGHITALFNDWWSEADFNQQAHTTPEQLKVQAVILGYPVISPDLGFPTDAATLATWSTTPKKIAADQHVTAANAPTFIWVTANDPLVPVQNALAYAQASLTHGVDTELHVFHNGPHGLALANSVTAWKPGTDLPHVAHWLDLATEWLQDLKLEHHHHHH | not failed
5 | MDSLIPFDYATLRVLWWLLLGALLIGFAVMDGFDLGVAALLPLVAKTDVERRVVLNVVGPVWEGNQVWLITAGGAIFAAWPLLYAASFSGFYLAMMLVLIALILRPVGFKYRSKMEGTRWRSRWDAVLCFCGVVAALVFGVAMGNIILGVPFGFDAATLRPEYEGHFYQLFKPFALLAGLVSVAMMVMHGGVLLAWRTHDPVSSRARNWGRLAALVTAALFVAGGFWVAYGLDGHVITSAVDMHAPSNPMLKTVELQAGGWMANYEKWPLTWIAPALGVGGALLAFVLLSARANVLAFLASSVSIAGIILTVGFALFPFIMPSSSRPGAGLTVWDGSSSLLTLWIMLLAVAFFLPIITVYTAWVYRVMRGKVTEDSVDGTPNSY | failed
6 | MQYRIRRENEAPEAKNAGETLWERDIMREVLLSAYRDRRRERMWKNIWRAVSTLILVALIAGIFRKDEAALQLAGNTPHTAVVNLYGKIGNGVEDQVKKLKDGMEAAYKNPQAKAIVIRANSPGGSPVVSNTAFEEIRRLKAQHPGIPVYLVAEDMCASGCYYIAAAADKIYADPSSIVGSIGVIGSSFDATGLMEKIGVKRRVKIAGSNKGMGDPFSPETPEQSKIWEEMLTGIHGEFIKAVKTGRGGRLKFRQYPDVFSGRVYTGADALKVGLVDGLGNIYSVARDVVKAPDVVDYTPKDDFGRILGRRFGAELKASVSEALQAVRLEHHHHHH | not failed
7 | MNKQQQSMNTNRSAQEMSETSPEYEQKYQQAIDCIENQEYGQAISILDELAGEASRDAKLRYARAVALLSNGEYRRAGTDLAFTVALDRSNLEAYRHLGFVLLTMGKEEAAIKVLEEALRRDPCFVEAWCVLADVHMDLGEHDKALDALDRAHELQPGNAEVHCKLAMYYMSRGDMRGLRAEYEVLREIEPDVAAQIAELLP | failed
8 | MDKKSKPDWAGESLLSNFVNLLIQTKPIYGVMKQQARQVLIKTAEKNGIPWRKNYEALQVSPAKKLLAAVTNPHVIYPDYYKVPFHAYTEGNLCWDAAFETESATYAMALRVWPQENLTWEAAHARLRGTFHDALETYAPQQVRDILDIGCSVGVSTLALHRYYQRRERYPVRTVGLDLSPYMLAVAKTRDVNSEISEWLHARAENTGLPDKSFDLVTIQFVTHELPGYVSQEIFAEAKRLLRPGGYIALVDNNPRSPVIQNLPPVLFTLMKSTEPWSDDYYTFDIEAALQAVGFAPPITVPSDPRHRTIIARKPD | failed
9 | MSLSNKIFTHSLPMRYADFPTLVDALDYAALSSAGMNFYDRRCQLEDQLEYQTLKARAEAGAKRLLSLNLKKGDRVALIAETSSEFVEAFFACQYAGLVAVPLAIPMGVGQRDSWSAKLQGLLASCQPAAIITGDEWLPLVNAATHDNPELHVLSHAWFKALPEADVALQRPVPNDIAYLQYTSGSTRFPRGVIITHREVMANLRAISHDGIKLRPGDRCVSWLPFYHDMGLVGFLLTPVATQLSVDYLRTQDFAMRPLQWLKLISKNRGTVSVAPPFGYELCQRRVNEKDLAELDLSCWRVAGIGAEPISAEQLHQFAECFRQVNFDNKTFMPCYGLAENALAVSFSDEASGVVVNEVDRDILEYQGKAVAPGAETRAVSTFVNCGKALPEHGIEIRNEAGMPVAERVVGHICISGPSLMSGYFGDQVSQDEIAATGWLDTGDLGYLLDGYLYVTGRIKDLIIIRGRNIWPQDIEYIAEQEPEIHSGDAIAFVTAQEKIILQIQCRISDEERRGQLIHALAARIQSEFGVTAAIDLLPPHSIPRTSSGKPARAEAKKRYQKAYAASLNVQESLAEGHHHHHH | not failed
10 | MASEREQISRKVALIALIANLILMAGKVFFGLVGDSEAVFADGIHSAADVVASIAVLAVIGISNKPPDQDHPFGHGKAEVISEAIVGIILVIVSVYILIEAILSFVKGPSVPQYSALFAALISYVAKEILYRYSIKQGKKWNSKAIIAIAYDHKGDIVASLAAFIGVLLAIIGNSRGWSYLLYADAIASAIVAYLIFKISMELIRPSVGVLMEKSVDPELIEEYKAVIFQCDQVKRIDRIRAREHGHYKLLDVRLSLDHDLTIKQGHDIAREIRNEIKRQFSDVEEVLIHVNPYFEE | failed
11 | MLIKKNALSILKIVFPIAVLLFVIYQSKKELTNLSFKRTLMVINGLERTDLFMLVLIGLLAVAAMSLYDYVLKYSLRLSITNGKVFRVSWIANSFNNVLGFGGLAGVGLRMMFYKEHTKDHKALVKGIAWLTSSMLLGLSVFSIFVAARVLPVDEVIHEKPWLWAVVIGFALILPLSLAVSKIKDRKAGDEENADKVKNPIFAYIGASVVEWLMAGTRHLFCFVRYGHSCRYQVCVRGVRHCGDRRNDQPRAGRLRLV | failed
12 | MKTEMTNVDISVAVSELQKVINGKLDKAFLVNNQDGKELILKVHIPEIGSREIAIGLGKYKYMTLTEYEREKPRNPPSFVMLLRKHLKNIKITSVAQHNFDRIVIFNFEWNELKYKLIIELFGDGNAILLDSEDKIILPLKIERWSTRKIVPKEIYKFPPQKDLDPKNLDYSLAKKLFIEEFEKEENKDTEVVRIISRTFGLAGVYSEEICLNSEIDKNLKNPKNEEIEKLFEGSKSFFKKVFGELKPKSTLKNGEFVNIDPIDLKIHENLKENEIKHYESFLTALDEYFSRFIMKKEIKQAESKLQKLVKKQERILKSQLDTKDKYEKQSVSNHKRGDLIYANYSLVDEIVSTIKDAREKMDWNGIKNVIKENKTHPILSKIINVNEKNAELTLKLSADYGNGLIEDSVPVDLRKNAFENADIVYQKSKKFKNKVQGVIEALKISEKKLAELKEKEKLDSEVFKEKEEKIKKKERK | failed
13 | DAPPAWLRCLAATYPVLAPLPNWGLSESRFRPVRAVANAGALPVVLTRVGREMPEIAATVEEFLAAAKDCGADVEVVDVPHGHHGFETIDLTDESRTAVRHALRTVL | failed
14 | MKAGIHPDYKKVVFMDTNTGFKFLSGSTKGSNETVEWEDGNTYPLLKVEISSDSHPFYTGRQKFATADGRVDRFNKKYGLK | failed
15 | MASLAFIQAFLESFKGFLSQATLISVLIASVLILFCAILLLLALLLRNRLASYIATAAFLGAFLSMPFVLNILLTQAIYPIETRILHANPLSYSNAFSLQVGVKNHSKFTLNKCVLRLEVLKNPHNFVEEHAFKWFVKKSYEKIFKEKILPKESKVFSFFIDNYPYSKTAPYQVSLFCL | failed
16 | MTRMQLHRLRYLLADVFGIVASYLSYNTLRYLTEEQERIYSTLSEYLFNAKSLWVGILYLLFWLSLFALSGYYNKPIAKSRISELLTTVASVLVGSVVVFLLLVVDDIVHDTALYLRLFFMMVATVLPWVYFPRLWVTTFGIKERKKTKGYHRVLLIGSGTIAEETASWLKSVNDMATTRLHFVPPTTREGFEQSLKSFATLVAEAVQESKPHQIILAVDCPDASFISLLLYQLYPFHMPVCVPMRSMLFAGAKVNVQGMKGEPMVDMTATNMSECAKSIKWFADRLFSLLMLILLIPVYAVIAVLVKRSSRGPVFFGQERIGLHGRPFTIYKFRTMYLDAEKDGPSLSFDGDSRVTPIGRILRKYRMDELPQFWNVLRGDMSFVGPRPERAFYIRQLVERAPYYYLLHNVRPGITSWGMVRYGYASTPDEMLERLQYDFLYYENMSLRLDIEVLLYTCQTIFKGLGK | failed
17 | MDYPNQTSSALFHSSEPLGLNLVDYLRVLLSQYWLIIGIAIGATSLTFGVSLLLPQKFRATATLQIERDVPKVMNVDNLIPVESPLDRDFYQTQYQLLQSRSLARAVIRKMNLGREPMFKPLVDKVLSKVQSLPVNTRNTAIESALIEMMLNSLKIEPILNSRLVYVHFDSHDPTLSAKVANAYAKMFIENNQQRRSNAFSFAMKYLAGRLEQLRIKVDKSERNVVAYSTDEKIVSVGDEKPSLSAQNLSDLNALLASAQNERIRAEASWRQASIGDGLSIPQVLSNLLVQSLRTDQANMVNEYQQKLSMFKPEYPEMQRLKARIKENTKQINAEVFNIRQSLKAQYEAALRQENLLNDRIAVLEKDELDLKTRLIRYNLLEREAETDRQLYDALLQRYKEISVLGDVGSNNVTVVDAADIPSRPISPNLLMNTILGGIFGVFLGLTVAMVRYSMHGAKRINVMSVE | failed
18 | MQHFKTKIEHFQIYIYFSAIILGILIGTNFPGISSILETLVAICIAILMFSMFSQIPFFELQKRVLNLKFVTALIIANFVILPILVYFLISIFNISSSAILIGLFLVLLTPCIDYVIVFTALGKGNAQYMLISTPILFVLQILLLPLYLTMFLDKSILTIIDIEPFIHSFFTFIIIPLLLALTLQLLSKKYYVMSQTLKATSWLPELFMSLVLFTVVGSQINKIANDLSVVVKVAPIYIIFMLIAPFIGYFTGKLFHLKPSILRTLAFSTSTRNALVVLPLALSLPDQWVTITTTVIITQTLIELIGELFYIKMIPSLIKS | failed
19 | GRDFAVDTKIETIGLTGSLSFKVNDNFSLGAGVIIQRTSGFVSQNLDLYASAANSPGMGGIPFPASNSSALMRVKVDNTSPGFFAGAVWKPTDRDTLGFAYHAKIRNKLKGHYNLYDHDGGLTEGAIEGGTPGLAYPGLDLRMGASASARLDIPAYASLDWVHQFNDRLSLGASATWTEWSSFQDLTLKSHGNTIVSIPYTYRNTWTLAVGGDYKVTDQWTMRAGVAYDQTPTHNATRDPRIPDGDRYFASLGAGYRFQSMPELSIDAAYSRQFVKEVPLKTV | failed
20 | MKQIIIAIGREFGSGGHLVAKKLAEHYNIPLYSKELLDEVAKDGRYSKEVLERFDEKPMNFAFIPVPAGGTTISLEQDIAIRQFNFIRKKANEEKESFVIVGRCAEEILSDNPNMISAFILGDKDTKTKRVMEREGVDEKTALNMMKKMDKMRKVYHNFYCESKWGDSRTYDICIKIGKVDVDTATDMIIKYIDSRDN | not failed
